Measured values: patent US4415667A, “Carboxypeptidase a gamma and process for preparing same” (Eisai Co., Ltd., priority 1981, dated 1983)

Substrate: O=C(CNC(=O)OCc1ccccc1)N[C@@H](Cc1ccccc1)C(=O)O
Test: Michaelis constant and maximum reaction velocity, hydrolysis of Nα-carbobenzoxyglycyl-L-phenylalanine (ninhydrin method)
Format: biochemical, porcine
Details: other: substrate concentration varied from 0.02 to 0.1 M; 25.0 °C
Description: The enzyme activity of the enzyme of the invention for Nα-carbobenzoxyglycyl-L-phenylalanine substrate was investigated by the ninhydrin method. […] After the combined solutions stood at 25° C. for 5 minutes, 0.2 ml of an enzyme solution was added, and the solution was incubated at 25° C. for 15 minutes. The reaction was stopped by adding 1 ml of a 3 M acetate buffer solution (pH 5.0) in an ice bath. The ninhydrin reagent was added to effect color development according to the Yemn & Cocking method. The enzyme activity for a casein substrate was investigated by the Kunitz method. Enzyme activities of the enzyme of the invention for benzoylglycyl-L-arginine and elastin were also investigated by the respective methods above. Enzyme activity was observed only for Nα-carbobenzoxyglycyl-L-phenylalanine and casein.
(9) Michaelis constant and maximum reaction velocity

B1: porcine pancreas carboxypeptidase Aγ (new species, obtained in Example 1; NH2-terminal sequence beginning with Asn) (Sus scrofa) (protein)
chain: NYATYHTLEEIYDFMDILVAEHPQLVSKLQIGSSYEGRPIYVLKFSTGGNNRPAIWIDTGIHSREWVTQASGVWFAKKITEDYGQDPAFTAILDNLDIFLEIVTNPDGFAFTHSENRMWRKTRSRTSGSFCVGVDPNRNWDAGFGGAGASSNPCSETYHGKFPNSEVEVKSIVDFVNDHGNIKAFISIHSYSQLLLYPYGYKTEAPADKDELDQISKSAVAALTSLYGTKFQYGSIITTIYQASGGTIDWTYNQGIKYSFSFELRDTGRYGFLLPASQIIPTAQETWLALLTIMEHTLNHPY
notes: from tissue; host or cells: porcine pancreas (from the unit heads)
Km: 20 mM
Vmax: 235.5 µmol/min/mg
